Reference: article PMC7611124

Tests used:
NF-kB p50 [1] = molecular target: T1, NF-kB p50 (UniProt P19838 1-433); assay: competition
NF-kB p50 [2] = molecular target: T1, NF-kB p50; assay: EMSA

T1 sequence (P19838 1-433): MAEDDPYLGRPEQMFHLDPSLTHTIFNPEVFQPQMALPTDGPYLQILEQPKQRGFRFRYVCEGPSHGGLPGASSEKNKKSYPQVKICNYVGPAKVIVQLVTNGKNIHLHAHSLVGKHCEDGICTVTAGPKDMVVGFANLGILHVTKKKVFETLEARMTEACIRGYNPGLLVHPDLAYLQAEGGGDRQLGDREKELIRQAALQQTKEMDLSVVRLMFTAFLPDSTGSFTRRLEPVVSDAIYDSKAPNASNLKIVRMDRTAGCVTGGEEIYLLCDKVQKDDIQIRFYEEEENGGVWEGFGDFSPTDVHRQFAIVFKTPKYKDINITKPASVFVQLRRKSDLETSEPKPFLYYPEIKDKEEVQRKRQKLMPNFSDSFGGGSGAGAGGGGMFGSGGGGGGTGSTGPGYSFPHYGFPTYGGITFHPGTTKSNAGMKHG

Binder	binding result (NF-kB p50 [1])	binding result (NF-kB p50 [2])
C-oligo NF-kB (consensus cold competitor) (dsDNA) DNA 1: CCGCTGGGACTTTCCAGGA DNA 2: TCCTGGAAAGTCCCAGCGG	binds	–
Probe C (rs28416813 C allele, IFNL3 5'UTR) (dsDNA, BrdU (written T) at positions 5 and 34 of strand 1) DNA 1: CCCCTGCCCTCAGTGGGCAGCCTCTGCATTCCCTCAGCTCCCTTTCTCTCTGTGA DNA 2: TCACAGAGAGAAAGGGAGCTGAGGGAATGCAGAGGCTGCCCACTGAGGGCAGGGG	–	binds
